# Like-named read-outs stand apart in the source and are kept apart here.
# B1: HIV-1 LTR 90-mer (ssDNA)
# DNA: AGCAGTGGCGCCCGAACAGGGACTTGAAAGCGAAAGTAAAGCCAGAGGAGATCTCTCGACGCAGGACTCGGCTTGCTGAAGCGCGCACGG
# B2: Scrambled DNA 90-mer (ssDNA)
# DNA: ACTAGCTCAAGCGGGGGACACCCAGGTGTCTCCAACAGTCCGTAGATCGGACGGAGAAGAGGGGACCCCGCTAATGAGCGTGAGCAGAGA
# What was measured:
# Assay in all cases: fluorescence anisotropy
# SAMHD1 T592A [1] = target: T1, SAMHD1 T592A (UniProt Q9Y3Z3 1-626, T592A)
# SAMHD1 WT [2] = target: T2, SAMHD1 WT (UniProt Q9Y3Z3 1-626)
# T2 sequence (Q9Y3Z3 whole entry): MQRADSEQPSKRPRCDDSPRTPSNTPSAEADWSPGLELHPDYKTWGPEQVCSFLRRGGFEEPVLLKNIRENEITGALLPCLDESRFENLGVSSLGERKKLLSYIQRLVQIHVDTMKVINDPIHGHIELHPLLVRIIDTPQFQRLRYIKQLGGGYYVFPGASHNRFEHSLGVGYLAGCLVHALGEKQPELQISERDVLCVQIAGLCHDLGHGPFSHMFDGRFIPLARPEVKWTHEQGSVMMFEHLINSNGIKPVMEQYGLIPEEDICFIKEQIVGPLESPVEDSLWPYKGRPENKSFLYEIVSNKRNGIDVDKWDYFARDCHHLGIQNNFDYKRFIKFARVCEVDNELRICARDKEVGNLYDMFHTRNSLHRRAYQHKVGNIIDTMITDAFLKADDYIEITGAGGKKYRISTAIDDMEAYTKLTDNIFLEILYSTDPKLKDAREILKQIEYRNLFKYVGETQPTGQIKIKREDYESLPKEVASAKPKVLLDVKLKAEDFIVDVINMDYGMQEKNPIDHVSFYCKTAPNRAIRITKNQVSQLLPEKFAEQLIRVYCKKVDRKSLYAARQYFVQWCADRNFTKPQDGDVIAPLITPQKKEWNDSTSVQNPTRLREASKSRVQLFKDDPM
# SAMHD1 WT [3] = target: T2, SAMHD1 WT; remark: listed apart in the source
# SAMHD1 WT [4] = target: T2, SAMHD1 WT; remark: listed apart in the source
# SAMHD1 T592A [5] = target: T1, SAMHD1 T592A; remark: listed apart in the source
# T1 sequence (Q9Y3Z3 whole entry T592A): as the sequence (Q9Y3Z3 whole entry) above, with T592A counted along it
Binder,binding result (SAMHD1 T592A [1]),Kd (SAMHD1 WT [2]),Kd (SAMHD1 WT [3]),binding result (SAMHD1 WT [4]),binding result (SAMHD1 T592A [5])
B1,no binding,242 ± 51 nM,93 ± 8 nM,,
B2,,,,no binding,no binding

# — paper doi:10.1101/270843
